Values joined by “and” are separate entries in the source; they are usually repeats but may differ in a detail not shown here. Equal values may be shown once.
What was measured:
[1] = biological target: TLR4-TMICL (transmembrane domain and whole intracellular linker region of human TLR4, residues 624-670) (human); assay: NMR titration; 1H,15N-TROSY spectra at various lipid(detergent)-to-protein ratios (LPR) in DPC micelles; populations of the states from cross-peak intensities; 45 °C; 20 mM phosphate buffer pH 6.0-6.5; monomer, dimer and higher oligomer
[2] = biological target: the molecule itself; assay: as above
[3] = biological target: His657 (UniProt position 657, …); assay: NMR; details: 45 °C (Methods: all NMR experiments), supplementary figure captions for the same samples state 40 °C, not stated (20 mM phosphate, no added salt mentioned), Monomeric, helical, membrane-mimetic-embedded TLR4-TMICL in anionic bicelles

TLR4-TMICL (transmembrane domain and whole intracellular linker region of human TLR4, residues 624-670) (domain or fragment)
stoichiometry N [1]: 2 and 3

B1: TLR4-TM (transmembrane domain of human TLR4 with the truncated ICL region, residues 624-657) (domain or fragment)
chain: MNITSQMNKTIIGVSVLSVLVVSVVAVLVYKFYFH
notes: not part of the stated range 624-657; human TLR4, predicted (UniProt) transmembrane and several juxtamembrane residues 624-657; 35 residues as printed; uniformly 13C/15N-labelled for NMR; cloned into pET22b by NdeI and HindIII; also called TLR-TM; source: continuous exchange cell-free expression (S30 extract of E. coli Rosetta(DE3)pLysS), as a precipitate; purified by size-exclusion …
stoichiometry N [2]: 2 and 3

MNITSQMNKTIIGVSVLSVLVVSVVAVLVYKFYFHLLMLAGCIKYGRG
pKa [3]: 6.16 ± 0.02

From paper PMC5537299, “Spatial structure of TLR4 transmembrane domain in bicelles provides the insight into the receptor activation mechanism” (Scientific Reports, 2017)
